T1: FcγRIIa R (human, UniProt P12318 34-217)
T1 construct: extracellular domain; also called FcgRIIa R type; 2aR
T1 sequence (looked up): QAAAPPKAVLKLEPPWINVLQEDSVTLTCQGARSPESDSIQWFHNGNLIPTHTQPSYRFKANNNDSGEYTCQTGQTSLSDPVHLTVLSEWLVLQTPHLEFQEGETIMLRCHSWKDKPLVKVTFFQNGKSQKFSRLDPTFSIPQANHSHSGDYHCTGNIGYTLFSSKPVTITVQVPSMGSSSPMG


Target: T1, FcγRIIa R
Test: SPR Biacore; vs GpH7-A5/GpH7-B3/GpL16-k0 =100

Row | He/Con_2aR | Binder
1 | 133 % of control | GpH7-A5/GpH7-B3 variant G237_06M/GpL16-k0 (antibody, human IgG1, kappa, also called He Ab G237_06M) heavy 1: not shown heavy 2: not shown light: DIVMTQSPLSLPVTPGEPASISCQASESLVHSNRNTYLHWYLQKPGQSPQLLIYKVSNRFSGVPDRFSGSGSGTDFTLKISRVEAEDVGVYYCSQNTHVPPTFGQGTKVEIERTVAAPSVFIFPPSDEQLKSGTASVVCLLNNFYPREAKVQWKVDNALQSGNSQESVTEQDSKDSTYSLSSTLTLSKADYEKHKVYACEVTHQGLSSPVTKSFNRGEC
2 | 126 % of control | GpH7-A5/GpH7-B3 variant G237_04F/GpL16-k0 (antibody, human IgG1, kappa, also called He Ab G237_04F) heavy 1: not shown heavy 2: not shown light: DIVMTQSPLSLPVTPGEPASISCQASESLVHSNRNTYLHWYLQKPGQSPQLLIYKVSNRFSGVPDRFSGSGSGTDFTLKISRVEAEDVGVYYCSQNTHVPPTFGQGTKVEIERTVAAPSVFIFPPSDEQLKSGTASVVCLLNNFYPREAKVQWKVDNALQSGNSQESVTEQDSKDSTYSLSSTLTLSKADYEKHKVYACEVTHQGLSSPVTKSFNRGEC
3 | 103 % of control | GpH7-A5/GpH7-B3 variant G236_14T/GpL16-k0 (antibody, human IgG1, kappa, also called He Ab G236_14T) heavy 1: not shown heavy 2: not shown light: DIVMTQSPLSLPVTPGEPASISCQASESLVHSNRNTYLHWYLQKPGQSPQLLIYKVSNRFSGVPDRFSGSGSGTDFTLKISRVEAEDVGVYYCSQNTHVPPTFGQGTKVEIERTVAAPSVFIFPPSDEQLKSGTASVVCLLNNFYPREAKVQWKVDNALQSGNSQESVTEQDSKDSTYSLSSTLTLSKADYEKHKVYACEVTHQGLSSPVTKSFNRGEC
4 | 101 % of control | GpH7-A5/GpH7-B3 variant E333_15Y/GpL16-k0 (antibody, human IgG1, kappa, also called He Ab E333_15Y) heavy 1: not shown heavy 2: not shown light: DIVMTQSPLSLPVTPGEPASISCQASESLVHSNRNTYLHWYLQKPGQSPQLLIYKVSNRFSGVPDRFSGSGSGTDFTLKISRVEAEDVGVYYCSQNTHVPPTFGQGTKVEIERTVAAPSVFIFPPSDEQLKSGTASVVCLLNNFYPREAKVQWKVDNALQSGNSQESVTEQDSKDSTYSLSSTLTLSKADYEKHKVYACEVTHQGLSSPVTKSFNRGEC

The next lines start with the binder.

Row | Binder | He/Con_2aR
5 | GpH7-A5/GpH7-B3 variant N325_06M/GpL16-k0 (antibody, human IgG1, kappa, also called He Ab N325_06M) heavy 1: not shown heavy 2: not shown light: DIVMTQSPLSLPVTPGEPASISCQASESLVHSNRNTYLHWYLQKPGQSPQLLIYKVSNRFSGVPDRFSGSGSGTDFTLKISRVEAEDVGVYYCSQNTHVPPTFGQGTKVEIERTVAAPSVFIFPPSDEQLKSGTASVVCLLNNFYPREAKVQWKVDNALQSGNSQESVTEQDSKDSTYSLSSTLTLSKADYEKHKVYACEVTHQGLSSPVTKSFNRGEC | 152 % of control
6 | GpH7-A5/GpH7-B3 variant E269_09D/GpL16-k0 (antibody, human IgG1, kappa, also called He Ab E269_09D) heavy 1: not shown heavy 2: not shown light: DIVMTQSPLSLPVTPGEPASISCQASESLVHSNRNTYLHWYLQKPGQSPQLLIYKVSNRFSGVPDRFSGSGSGTDFTLKISRVEAEDVGVYYCSQNTHVPPTFGQGTKVEIERTVAAPSVFIFPPSDEQLKSGTASVVCLLNNFYPREAKVQWKVDNALQSGNSQESVTEQDSKDSTYSLSSTLTLSKADYEKHKVYACEVTHQGLSSPVTKSFNRGEC | 105 % of control
7 | GpH7-A5/GpH7-B3 variant E333_08L/GpL16-k0 (antibody, human IgG1, kappa, also called He Ab E333_08L) heavy 1: not shown heavy 2: not shown light: DIVMTQSPLSLPVTPGEPASISCQASESLVHSNRNTYLHWYLQKPGQSPQLLIYKVSNRFSGVPDRFSGSGSGTDFTLKISRVEAEDVGVYYCSQNTHVPPTFGQGTKVEIERTVAAPSVFIFPPSDEQLKSGTASVVCLLNNFYPREAKVQWKVDNALQSGNSQESVTEQDSKDSTYSLSSTLTLSKADYEKHKVYACEVTHQGLSSPVTKSFNRGEC | 103 % of control
8 | GpH7-A5/GpH7-B3 variant A330_11K/GpL16-k0 (antibody, human IgG1, kappa, also called He Ab A330_11K) heavy 1: not shown heavy 2: not shown light: DIVMTQSPLSLPVTPGEPASISCQASESLVHSNRNTYLHWYLQKPGQSPQLLIYKVSNRFSGVPDRFSGSGSGTDFTLKISRVEAEDVGVYYCSQNTHVPPTFGQGTKVEIERTVAAPSVFIFPPSDEQLKSGTASVVCLLNNFYPREAKVQWKVDNALQSGNSQESVTEQDSKDSTYSLSSTLTLSKADYEKHKVYACEVTHQGLSSPVTKSFNRGEC | 110 % of control
9 | GpH7-A5/GpH7-B3 variant A330_01G/GpL16-k0 (antibody, human IgG1, kappa, also called He Ab A330_01G) heavy 1: not shown heavy 2: not shown light: DIVMTQSPLSLPVTPGEPASISCQASESLVHSNRNTYLHWYLQKPGQSPQLLIYKVSNRFSGVPDRFSGSGSGTDFTLKISRVEAEDVGVYYCSQNTHVPPTFGQGTKVEIERTVAAPSVFIFPPSDEQLKSGTASVVCLLNNFYPREAKVQWKVDNALQSGNSQESVTEQDSKDSTYSLSSTLTLSKADYEKHKVYACEVTHQGLSSPVTKSFNRGEC | 109 % of control
10 | GpH7-A5/GpH7-B3 variant A330_05P/GpL16-k0 (antibody, human IgG1, kappa, also called He Ab A330_05P) heavy 1: not shown heavy 2: not shown light: DIVMTQSPLSLPVTPGEPASISCQASESLVHSNRNTYLHWYLQKPGQSPQLLIYKVSNRFSGVPDRFSGSGSGTDFTLKISRVEAEDVGVYYCSQNTHVPPTFGQGTKVEIERTVAAPSVFIFPPSDEQLKSGTASVVCLLNNFYPREAKVQWKVDNALQSGNSQESVTEQDSKDSTYSLSSTLTLSKADYEKHKVYACEVTHQGLSSPVTKSFNRGEC | 115 % of control
11 | GpH7-A5/GpH7-B3 variant E333_04F/GpL16-k0 (antibody, human IgG1, kappa, also called He Ab E333_04F) heavy 1: not shown heavy 2: not shown light: DIVMTQSPLSLPVTPGEPASISCQASESLVHSNRNTYLHWYLQKPGQSPQLLIYKVSNRFSGVPDRFSGSGSGTDFTLKISRVEAEDVGVYYCSQNTHVPPTFGQGTKVEIERTVAAPSVFIFPPSDEQLKSGTASVVCLLNNFYPREAKVQWKVDNALQSGNSQESVTEQDSKDSTYSLSSTLTLSKADYEKHKVYACEVTHQGLSSPVTKSFNRGEC | 102 % of control
